Patent US20130011378A1, “Stable formulations of a hyaluronan-degrading enzyme” (priority 2011, published 2013)

Experiment: RP-HPLC: insulin apparent solubility / percent recovery
Details: for Solubility of Lispro, % remaining of the original concentration: 7 days at 2-8° C.
Procedure, shortened: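 Vial samples withdrawn at each time point, centrifuged, held at 4 °C, run in duplicate by RP-HPLC. Apparent solubility = combined insulin main and desamido peak areas as percent versus standards/initial formulation; purity = main insulin peak as percent of all insulin species.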

insulin Lispro: insulin analog LysB28, ProB29; SEQ ID NO:103 and 148
Solubility of Lispro, % remaining of the original concentration (0.2% methylparaben + […] m-cresol, pH 6.6, NaCl 50 mM): 42.0% | Solubility of Lispro, % remaining of the original concentration (0.2% methylparaben + […] m-cresol, pH 6.6, NaCl 80 mM): 28.2% | Solubility of Lispro, % remaining of the original concentration (0.2% methylparaben + […] m-cresol, pH 6.6, NaCl 110 mM): 24.1% | Solubility of Lispro, % remaining of the original concentration (0.2% methylparaben + […] m-cresol, pH 6.6, NaCl 140 mM): 25.9% | Solubility of Lispro, % remaining of the original concentration (0.2% methylparaben + […] m-cresol, pH 6.8, NaCl 50 mM): 82.3% | Solubility of Lispro, % remaining of the original concentration (0.2% methylparaben + […] m-cresol, pH 6.8, NaCl 80 mM): 62.6% | Solubility of Lispro, % remaining of the original concentration (0.2% methylparaben + […] m-cresol, pH 6.8, NaCl 110 mM): 47.8% | Solubility of Lispro, % remaining of the original concentration (0.2% methylparaben + […] m-cresol, pH 6.8, NaCl 140 mM): 42.0% | Solubility of Lispro, % remaining of the original concentration (0.2% methylparaben + […] m-cresol, pH 7.0, NaCl 50 mM): 95.3% | Solubility of Lispro, % remaining of the original concentration (0.2% methylparaben + […] m-cresol, pH 7.0, NaCl 80 mM): 98.1% | Solubility of Lispro, % remaining of the original concentration (0.2% methylparaben + […] m-cresol, pH 7.0, NaCl 110 mM): 94.1% | Solubility of Lispro, % remaining of the original concentration (0.2% methylparaben + […] m-cresol, pH 7.0, NaCl 140 mM): 65.6% | Solubility of Lispro, % remaining of the original concentration (0.2% methylparaben + […] m-cresol, pH 7.2, NaCl 50 mM): 95.7% | Solubility of Lispro, % remaining of the original concentration (0.2% methylparaben + […] m-cresol, pH 7.2, NaCl 80 mM): 97.9% | Solubility of Lispro, % remaining of the original concentration (0.2% methylparaben + […] m-cresol, pH 7.2, NaCl 110 mM): 99.6% | Solubility of Lispro, % remaining of the original concentration (0.2% methylparaben + […] m-cresol, pH 7.2, NaCl 140 mM): 98.0% | Solubility of Lispro, % remaining of the original concentration (0.2% methylparaben + […] m-cresol, pH 7.4, NaCl 50 mM): 95.6% | Solubility of Lispro, % remaining of the original concentration (0.2% methylparaben + […] m-cresol, pH 7.4, NaCl 80 mM): 98.2% | Solubility of Lispro, % remaining of the original concentration (0.2% methylparaben + […] m-cresol, pH 7.4, NaCl 110 mM): 99.9% | Solubility of Lispro, % remaining of the original concentration (0.2% methylparaben + […] m-cresol, pH 7.4, NaCl 140 mM): 98.5% | Solubility of Lispro, % remaining of the original concentration (0.2% methylparaben + […] m-cresol, pH 7.6, NaCl 50 mM): 95.7% | Solubility of Lispro, % remaining of the original concentration (0.2% methylparaben + […] m-cresol, pH 7.6, NaCl 80 mM): 98.3% | Solubility of Lispro, % remaining of the original concentration (0.2% methylparaben + […] m-cresol, pH 7.6, NaCl 110 mM): 100.2% | Solubility of Lispro, % remaining of the original concentration (0.2% methylparaben + […] m-cresol, pH 7.6, NaCl 140 mM): 98.8% | Solubility of Lispro, % remaining of the original concentration (0.2% phenol + […] m-cresol, pH 6.6, NaCl 50 mM): 52.8% | Solubility of Lispro, % remaining of the original concentration (0.2% phenol + […] m-cresol, pH 6.6, NaCl 80 mM): 32.8% | Solubility of Lispro, % remaining of the original concentration (0.2% phenol + […] m-cresol, pH 6.6, NaCl 110 mM): 26.0% | Solubility of Lispro, % remaining of the original concentration (0.2% phenol + […] m-cresol, pH 6.8, NaCl 50 mM): 91.4% | Solubility of Lispro, % remaining of the original concentration (0.2% phenol + […] m-cresol, pH 6.8, NaCl 80 mM): 65.1% | Solubility of Lispro, % remaining of the original concentration (0.2% phenol + […] m-cresol, pH 6.8, NaCl 110 mM): 44.9% | Solubility of Lispro, % remaining of the original concentration (0.2% phenol + […] m-cresol, pH 6.8, NaCl 140 mM): 40.4% | Solubility of Lispro, % remaining of the original concentration (0.2% phenol + […] m-cresol, pH 7.0, NaCl 50 mM): 97.4% | Solubility of Lispro, % remaining of the original concentration (0.2% phenol + […] m-cresol, pH 7.0, NaCl 80 mM): 95.5% | Solubility of Lispro, % remaining of the original concentration (0.2% phenol + […] m-cresol, pH 7.0, NaCl 110 mM): 75.2% | Solubility of Lispro, % remaining of the original concentration (0.2% phenol + […] m-cresol, pH 7.0, NaCl 140 mM): 65.3% | Solubility of Lispro, % remaining of the original concentration (0.2% phenol + […] m-cresol, pH 7.2, NaCl 50 mM): 97.6% | Solubility of Lispro, % remaining of the original concentration (0.2% phenol + […] m-cresol, pH 7.2, NaCl 80 mM): 97.4% | Solubility of Lispro, % remaining of the original concentration (0.2% phenol + […] m-cresol, pH 7.2, NaCl 110 mM): 95.2% | Solubility of Lispro, % remaining of the original concentration (0.2% phenol + […] m-cresol, pH 7.2, NaCl 140 mM): 90.8% | Solubility of Lispro, % remaining of the original concentration (0.2% phenol + […] m-cresol, pH 7.4, NaCl 50 mM): 97.7% | Solubility of Lispro, % remaining of the original concentration (0.2% phenol + […] m-cresol, pH 7.4, NaCl 80 mM): 97.6% | Solubility of Lispro, % remaining of the original concentration (0.2% phenol + […] m-cresol, pH 7.4, NaCl 110 mM): 97.0% | Solubility of Lispro, % remaining of the original concentration (0.2% phenol + […] m-cresol, pH 7.4, NaCl 140 mM): 96.9% | Solubility of Lispro, % remaining of the original concentration (0.2% phenol + […] m-cresol, pH 7.6, NaCl 50 mM): 97.5% | Solubility of Lispro, % remaining of the original concentration (0.2% phenol + […] m-cresol, pH 7.6, NaCl 80 mM): 97.7% | Solubility of Lispro, % remaining of the original concentration (0.2% phenol + […] m-cresol, pH 7.6, NaCl 110 mM): 97.3% | Solubility of Lispro, % remaining of the original concentration (0.2% phenol + […] m-cresol, pH 7.6, NaCl 140 mM): 96.8% | time insulin Lispro stable (soluble) (2-8° C., pH 7.0, 50 mM NaCl): 5 months | Solubility (2-8° C., pH 7.0, after 1 week at 80, 110 or 140 mM NaCl): below 65% | time insulin Lispro stable (soluble) (2-8° C., pH 7.6, 140 mM NaCl): 2 weeks | time insulin Lispro stable (soluble) (2-8° C., pH 7.6, 50 and 80 mM NaCl, […] m-cresol, […] phenol): at least 12 months | Solubility of Lispro, % remaining of the original concentration ([…] phenol + […] m-cresol, pH 6.6, NaCl 50 mM): 60.3% | Solubility of Lispro, % remaining of the original concentration ([…] phenol + […] m-cresol, pH 6.6, NaCl 80 mM): 43.3% | Solubility of Lispro, % remaining of the original concentration ([…] phenol + […] m-cresol, pH 6.6, NaCl 110 mM): 24.2% | Solubility of Lispro, % remaining of the original concentration ([…] phenol + […] m-cresol, pH 6.6, NaCl 140 mM): 27.7% | Solubility of Lispro, % remaining of the original concentration ([…] phenol + […] m-cresol, pH 6.8, NaCl 50 mM): 93.6% | Solubility of Lispro, % remaining of the original concentration ([…] phenol + […] m-cresol, pH 6.8, NaCl 80 mM): 60.8% | Solubility of Lispro, % remaining of the original concentration ([…] phenol + […] m-cresol, pH 6.8, NaCl 110 mM): 44.9% | Solubility of Lispro, % remaining of the original concentration ([…] phenol + […] m-cresol, pH 6.8, NaCl 140 mM): 35.9% | Solubility of Lispro, % remaining of the original concentration ([…] phenol + […] m-cresol, pH 7.0, NaCl 50 mM): 98.7% | Solubility of Lispro, % remaining of the original concentration ([…] phenol + […] m-cresol, pH 7.0, NaCl 80 mM): 96.4% | Solubility of Lispro, % remaining of the original concentration ([…] phenol + […] m-cresol, pH 7.0, NaCl 110 mM): 77.0% | Solubility of Lispro, % remaining of the original concentration ([…] phenol + […] m-cresol, pH 7.0, NaCl 140 mM): 61.2% | Solubility of Lispro, % remaining of the original concentration ([…] phenol + […] m-cresol, pH 7.2, NaCl 50 mM): 100.5% | Solubility of Lispro, % remaining of the original concentration ([…] phenol + […] m-cresol, pH 7.2, NaCl 80 mM): 99.2% | Solubility of Lispro, % remaining of the original concentration ([…] phenol + […] m-cresol, pH 7.2, NaCl 110 mM): 97.3% | Solubility of Lispro, % remaining of the original concentration ([…] phenol + […] m-cresol, pH 7.2, NaCl 140 mM): 93.1% | Solubility of Lispro, % remaining of the original concentration ([…] phenol + […] m-cresol, pH 7.4, NaCl 50 mM): 100.8% | Solubility of Lispro, % remaining of the original concentration ([…] phenol + […] m-cresol, pH 7.4, NaCl 80 mM): 101.8% | Solubility of Lispro, % remaining of the original concentration ([…] phenol + […] m-cresol, pH 7.4, NaCl 110 mM): 100.7% | Solubility of Lispro, % remaining of the original concentration ([…] phenol + […] m-cresol, pH 7.4, NaCl 140 mM): 98.4% | Solubility of Lispro, % remaining of the original concentration ([…] phenol + […] m-cresol, pH 7.6, NaCl 50 mM): 100.9% | Solubility of Lispro, % remaining of the original concentration ([…] phenol + […] m-cresol, pH 7.6, NaCl 80 mM): 102.1% | Solubility of Lispro, % remaining of the original concentration ([…] phenol + […] m-cresol, pH 7.6, NaCl 110 mM): 101.6% | Solubility of Lispro, % remaining of the original concentration ([…] phenol + […] m-cresol, pH 7.6, NaCl 140 mM): 101.3%
